Source: patent publication US20080026996A1, “Selective Vpac2 Receptor Reptide Agonists” (ELI LILLY AND COMPANY, priority 2004, published 2008)
Numbering of substitutions follows the chain as printed. Where no end group is shown, it is not given here. [ ]: non-standard residue; d: D form. The star is where a group is joined. Met(O) = CS(=O)CC[C@H](N)C(=O)O; NMeV = CN[C@H](C(=O)O)C(C)C; NMeA = CN[C@@H](C)C(=O)O; Hexanoyl = CCCCCC(=O)*; Aib = CC(C)(N)C(=O)O; Mpa = O=C(O)CCS

T1: human VPAC2 receptor (human, UniProt P41587 24-438)
T1 sequence (looked up): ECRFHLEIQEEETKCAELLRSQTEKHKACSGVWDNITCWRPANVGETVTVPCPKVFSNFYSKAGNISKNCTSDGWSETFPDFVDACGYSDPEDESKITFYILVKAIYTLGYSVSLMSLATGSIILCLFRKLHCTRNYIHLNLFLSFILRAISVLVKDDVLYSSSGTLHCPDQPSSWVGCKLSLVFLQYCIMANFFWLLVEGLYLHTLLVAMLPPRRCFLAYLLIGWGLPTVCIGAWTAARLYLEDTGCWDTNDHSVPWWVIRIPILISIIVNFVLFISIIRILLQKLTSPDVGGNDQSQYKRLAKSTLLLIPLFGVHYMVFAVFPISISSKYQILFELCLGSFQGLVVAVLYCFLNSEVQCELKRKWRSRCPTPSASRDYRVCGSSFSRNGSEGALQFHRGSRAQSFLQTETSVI

B1: P233 (peptide)
peptide: Hexanoyl-HSDAVFTDNYTRLRKQVAAKKYIQSIKNKRYGGPSSGAPPPS
B2: P234 (peptide)
peptide: Hexanoyl-HSDAVFTDNYTRLRKQVAAKKYVQSIKNKRYGGPSSGAPPPS
B3: P235 (peptide)
peptide: Hexanoyl-HSDAVFTDNYTRLRKQVAAKKYAQSIKNKRYGGPSSGAPPPS
B4: P252 (peptide)
peptide: Hexanoyl-HSDAVFTDNYTRLQKQVAAQKYLQSIKNKRYGGPSSGAPPPS
B5: P253 (peptide)
peptide: Hexanoyl-HSDAVFTDNYTRLQKQVAAKQYLQSIKNKRYGGPSSGAPPPS
B6: P275 (peptide)
peptide: Hexanoyl-HSDAVFTDNYTRLRKQVAGKKYLQSIKNKRYGGPSSGAPPPS
B7: P289 (peptide)
peptide: Hexanoyl-HSDALFTDNYTRLRKQVAAKKYLQSIKNKRYGGPSSGAPPPS
B8: P290 (peptide)
peptide: Hexanoyl-HSDAVFTDNYTRLRKQLAAKKYLQSIKNKRYGGPSSGAPPPS
B9: P194 (peptide)
peptide: Hexanoyl-HSDAVFTDNYTRLRK(Ac)QVAAKK(Ac)YLQSIKNKRYGGPSSGAPPPS
B10: P199 (peptide)
peptide: [Met(O)]HSDAVFTDNYTRLRKQVAAKKYLQSIKNKRYGGPSSGAPPPS
modifications: ends and bridges not checked
B11: P205 (peptide)
peptide: [Mpa]HSDAVFTDNYTRLLAKLALQKYLQSIKNKRYGGPSSGAPPPS
B12: P207 (peptide)
peptide: Hexanoyl-HSD[dA]VFTDNYTRLRKQVAAKKYLQSIKNKRYGGPSSGAPPPS
B13: P208 (peptide)
peptide: Hexanoyl-HSD[NMeA]VFTDNYTRLRKQVAAKKYLQSIKNKRYGGPSSGAPPPS
B14: P209 (peptide)
peptide: Hexanoyl-HSD[Aib]VFTDNYTRLRKQVAAKKYLQSIKNKRYGGPSSGAPPPS
modifications: ends and bridges not checked
B15: P210 (peptide)
peptide: Hexanoyl-HSDA[dV]FTDNYTRLRKQVAAKKYLQSIKNKRYGGPSSGAPPPS
B16: P211 (peptide)
peptide: Hexanoyl-HSDA[NMeV]FTDNYTRLRKQVAAKKYLQSIKNKRYGGPSSGAPPPS
B17: P212 (peptide)
peptide: Hexanoyl-HSDA[Aib]FTDNYTRLRKQVAAKKYLQSIKNKRYGGPSSGAPPPS
modifications: ends and bridges not checked
B18: P220 (peptide)
peptide: Hexanoyl-HSDAVFTDQYTRLRRQVAARKYLQSIRQGGPSSGAPPPS
B19: P221 (peptide)
peptide: Hexanoyl-HSDIVFTDNYTRLRKQVAAKKYLQSIKNKRYGGPSSGAPPPS
B20: P223 (peptide)
peptide: Hexanoyl-HSDLVFTDNYTRLRKQVAAKKYLQSIKNKRYGGPSSGAPPPS
B21: P228 (peptide)
peptide: Hexanoyl-HSDAVFTDNYTRLRKQVAAKK[Aib]LQSIKNKRYGGPSSGAPPPS
modifications: ends and bridges not checked
B22: P229 (peptide)
peptide: Hexanoyl-HSDAVFTDNYTRLRKQVAAKKALQSIKNKRYGGPSSGAPPPS
B23: P232 (peptide)
peptide: Hexanoyl-HSDAVFTDNYTRLRKQVAAKKYTQSIKNKRYGGPSSGAPPPS
B24: P236 (peptide)
peptide: Hexanoyl-HSDAVFTDNYTRLRKQVAAKKY[Aib]QSIKNKRYGGPSSGAPPPS
modifications: ends and bridges not checked
B25: P249 (peptide)
peptide: Hexanoyl-HSDAVFTDNYTRL[Aib]KQVAAKQYLQSIKNKRYGGPSSGAPPPS
modifications: ends and bridges not checked
B26: P259 (peptide)
peptide: Hexanoyl-HSDAVFTDNYTRL[Aib]KQVAALKYLQSIKNKRYGGPSSGAPPPS
modifications: ends and bridges not checked
B27: P260 (peptide)
peptide: Hexanoyl-HSDAVFTDNYTRL[Aib]KQVAAAKYLQSIKNKRYGGPSSGAPPPS
modifications: ends and bridges not checked
B28: P269 (peptide)
peptide: Hexanoyl-HSDAVFTDNYTRL[Aib]KQVAAVKYLQSIKNKRYGGPSSGAPPPS
modifications: ends and bridges not checked
B29: P250 (peptide)
peptide: Hexanoyl-HSDAVFTDNYTRLQKQVAA[Aib]KYLQSIKNKRYGGPSSGAPPPS
modifications: ends and bridges not checked
B30: P258 (peptide)
peptide: Hexanoyl-HSDAVFTDNYTRLQ[Aib]QVAAKKYLQSIKNKRYGGPSSGAPPPS
modifications: ends and bridges not checked
B31: P262 (peptide)
peptide: Hexanoyl-HSDAVFTDNYTRLR[Aib]QVAAVKYLQSIKNKRYGGPSSGAPPPS
modifications: ends and bridges not checked
B32: P263 (peptide)
peptide: Hexanoyl-HSDAVFTDNYTRLR[Aib]QVAAAKYLQSIKNKRYGGPSSGAPPPS
modifications: ends and bridges not checked
B33: P265 (peptide)
peptide: Hexanoyl-HSDAVFTDNYTRLR[Aib]QVAALKYLQSIKNKRYGGPSSGAPPPS
modifications: ends and bridges not checked
B34: P301 (peptide)
peptide: Hexanoyl-HSDAVFTDNYTRLA[Aib]QVAA[Aib]KYLQSIKNKRYGGPSSGAPPPS
modifications: ends and bridges not checked
B35: P302 (peptide)
peptide: Hexanoyl-HSDAVFTDNYTRLQ[Aib]QVAA[Aib]KYLQSIKNKRYGGPSSGAPPPS
modifications: ends and bridges not checked
B36: P317 (peptide)
peptide: Hexanoyl-HSDAVFTDNYTRLL[Aib]QVAA[Aib]KYLQSIKNKRYGGPSSGAPPPS
modifications: ends and bridges not checked
B37: P324 (peptide)
peptide: Hexanoyl-HSDAVFTDNYTRLR[Aib]QAAA[Aib]KYLQSIKNKRYGGPSSGAPPPS
modifications: ends and bridges not checked
B38: P341 (peptide)
peptide: Hexanoyl-HSDAVFTDNYTRLR[Aib]QVAA[Aib]AYLQSIKNKRYGGPSSGAPPPS
modifications: ends and bridges not checked
B39: P82 (peptide)
peptide: HSDAVFTDNYTRLRKQVAAKKYLQSIKRGGPSSGAPPPS
B40: P85 (peptide)
peptide: B39 peptide with R28K
B41: P92 (peptide)
peptide: B39 peptide with R28N, G30R
B42: P271 (peptide)
peptide: Hexanoyl-HSDAVFTDNYTRLRKQVAAKKYLQSIKNGRPSSGAPPPS
B43: P294 (peptide)
peptide: Hexanoyl-HSDAVFTDNYTRLR[Aib]QVAA[Aib]KYLQSIKQKGGPSSGAPPPS
modifications: ends and bridges not checked

Each binder was assayed against T1, human VPAC2 receptor (assay: cell-based or functional assay).

Binder | EC50 cAMP, Alpha Screen [pM] | EC50 cAMP, DiscoveRx [pM]
B1 | 110 | –
B2 | 160 | –
B3 | 820 | –
B4 | 260 | –
B5 | 460 | –
B6 | 320 | –
B7 | 160 | –
B8 | 220 | –
B9 | 130 | –
B10 | 29600 | –
B11 | 1140 | –
B12 | 860 | –
B13 | 50200 | –
B14 | 100 | –
B15 | 910 | –
B16 | 989000 | –
B17 | 120 | –
B18 | 120 | –
B19 | 1980 | –
B20 | 5820 | –
B21 | 3480 | –
B22 | 2600 | –

Binder | EC50 cAMP, Alpha Screen [pM] | EC50 cAMP, DiscoveRx [pM]
B23 | 1940 | –
B24 | 120 | –
B25 | 930 | –
B26 | 1080 | –
B27 | 830 | –
B28 | 1020 | –
B29 | 180 | –
B30 | 170 | –
B31 | 240 | –
B32 | 70 | –
B33 | 210 | –
B34 | 890 | –
B35 | 450 | –
B36 | 360 | –
B37 | 230 | –
B38 | 380 | –
B39 | 15200 | –
B40 | 22200 | –
B41 | 10200 | 8200
B42 | 120 | –
B43 | 240 | –
